Results as given in publication PMC8204342, “Dual arginine recognition of LRRK2 phosphorylated Rab GTPases” (Biophysical Journal, 2021).
Residue numbers refer to the chain shown, from its start. Numbers in names are those of the source.

T1: Full-length RILPL2 as used in calorimetry (human, UniProt Q969X0 1-211)
T1 construct: also called RL2-FL
T1 sequence (looked up): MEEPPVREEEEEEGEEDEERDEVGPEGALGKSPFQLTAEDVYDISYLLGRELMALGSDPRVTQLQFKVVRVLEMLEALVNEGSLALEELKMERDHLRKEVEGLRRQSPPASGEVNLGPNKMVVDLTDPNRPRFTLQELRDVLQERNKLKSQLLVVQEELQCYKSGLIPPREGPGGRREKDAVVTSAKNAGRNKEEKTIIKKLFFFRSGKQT

B1: Rab8a(Q67L + T72E), phosphomimetic mutant, residues 1-181 (natural protein, human, UniProt P61006 1-181, looked up)
chain: MAKTYDYLFKLLLIGDSGVGKTCVLFRFSEDAFNSTFISTIGIDFKIRTIELDGKRIKLQIWDTAGLERFREITTAYYRGAMGIMLVYDITNEKSFDNIRNWIRNIEEHASADVEKMILGNKCDVNDKRQVSKERGEKLALDYGIKFMETSAKANINVENAFFTLARDIKAKMDKKLEGNS
notes: Rab8a, human, residues 1-181, Q67L + T72E; Tag removed with thrombin; also called Rab8^TE; Rab8TE; source: E. coli, purified (Ni2+-agarose, Superdex 75); not shown: His6, N-terminal, cleaved
B2: His6-RILPL2 129-165 synthetic peptide (minimal Rab-binding domain) (peptide, UniProt Q969X0 129-165, looked up)
chain: NRPRFTLQELRDVLQERNKLKSQLLVVQEELQCYKSG
notes: source: synthetic peptide (GenScript); not shown: His6, N-terminal, kept
B3: pRab8a(Q67L), human Rab8a residues 1-181 phosphorylated at T72, GTP-bound (natural protein, UniProt P61006 1-181, looked up)
chain: B1 chain with E72T
modifications: phosphothreonine at 72 (pT72)
notes: Tag removed with thrombin (pET28a, NdeI/BamHI); also called pRab8(Q67L); phospho-Rab8a; source: E. coli, purified (Ni2+-agarose, Superdex 75), phosphorylated in vitro by MST3 kinase, separated on MonoS; not shown: His6, N-terminal, cleaved
B4: RILPL2 extended Rab-binding domain, residues 117-165, tag cleaved (domain or fragment, human, UniProt Q969X0 117-165, looked up)
chain: GPNKMVVDLTDPNRPRFTLQELRDVLQERNKLKSQLLVVQEELQCYKSG
notes: Parallel coiled-coil dimer in the crystal; source: E. coli BL21(DE3), purified (Ni2+-agarose, TEV cleavage, MonoS); not shown: His6, N-terminal, cleaved; MBP, N-terminal, cleaved

Tests used:
[1] = molecular target: B2; test: ITC; Rab8^TE/pRab8a (400-600 uM) injected into RILPL2 (40-60 uM); 20 mM Tris-HCl, 150 mM NaCl, 5 mM MgCl2, 1 mM DTT, pH 7.5; triplicate; conditions: both partners purified
[2] = molecular target: B1; test: as above; conditions: both partners purified
[3] = molecular target: B3; test: as above; conditions: both partners purified
[4] = molecular target: the molecule itself; test: crystal structure; Rab8^TE:RL2^129, 1:2 molar ratio protein/peptide, 12 mg/mL; 100 mM HEPES pH 7, 10% PEG 4000, 10% 2-propanol; 1.7 A
[5] = molecular target: B4; test: ITC; Rab8^TE/pRab8a (400-600 uM) injected into RILPL2 (40-60 uM); 20 mM Tris-HCl, 150 mM NaCl, 5 mM MgCl2, 1 mM DTT, pH 7.5; triplicate; conditions: both partners purified
[6] = molecular target: T1, Full-length RILPL2 as used in …; test: as above; conditions: both partners purified
[7] = molecular target: the molecule itself; test: crystal structure; pRab8(Q67L):RL2^117, 1:1 molar ratio, 5 mg/mL; 150 mM DL-malic acid, 20% PEG3350; 1.9 A

Binder: B1
dH [1]: -2.7 kcal/mol
stoichiometry N [1]: 1.03

Binder: B2
Kd [2]: 3400 nM
Kd [3]: 3300 nM
binding result [4]: binds

Binder: B3
dH [5]: -7.4 kcal/mol
stoichiometry N [5]: 1.1
Kd [6]: 1400 nM
dH [6]: -1.4 kcal/mol
stoichiometry N [6]: 1.04
dH [1]: -5.1 kcal/mol
stoichiometry N [1]: 0.92

Binder: B4
binding result [7]: binds
Kd [3]: 540 nM
